# Results published in patent US8367390B2, “Galactanase variants” (Novozymes A/S, priority 2002, dated 2013).
# B1: MTGAL: GH Family 53 galactanase from Myceliophthora thermophila, SEQ ID NO: 1 (wild type parent) (protein, listed as Myceliophthora thermophila)
# chain: ALTYRGVDWSSVVVEERAGVSYKNTNGNAQPLENILAANGVNTVRQRVWVNPADGNYNLDYNIAIAKRAKAAGLGVYIDFHYSDTWADPAHQTMPAGWPSDIDNLSWKLYNYTLDAANKLQNAGIQPTIVSIGNEIRAGLLWPTGRTENWANIARLLHSAAWGIKDSSLSPKPKIMIHLDNGWDWGTQNWWYTNVLKQGTLELSDFDMMGVSFYPFYSSSATLSALKSSLDNMAKTWNKEIAVVETNWPISCPNPRYSFPSDVKNIPFSPEGQTTFITNVANIVSSVSRGVGLFYWEPAWIHNANLGSSCADNTMFSQSGQALSSLSVFQRI
# modifications: mat_peptide (1)..()
# Experiment: Activity with ONPG, release of o-nitrophenol (ONP) at 405 nm
# Format: biochemical
# Conditions: for Time (min) to increase A405 by: 0.025 / Time (min) to increase A405 by: 0.05 / Time (min) to increase A405 by: 0.1 / Time (min) to increase A405 by: 0.2 / Time (min) to increase A405 by: 0.4 / Time (min) to increase A405 by: 0.8 / Time (min) to increase A405 by: 1.6 / Time (min) to increase A405 by: 3.2: Table 8, ONPG 5 mg/ml
# Description: The activity of HIGAL and MTGAL with ONPG was tested by mixing 200 microliters (normally 5.5 mg/ml) ONPG in 50 mM sodium acetate, 1 mM CaCl2, 0.01% Triton X-100, pH 6.5 with 25 microliters galactanase (normally 1 mg/ml) in the well of a microtiter plate. Release of o-nitrophenol (ONP) was measured at room temperature at 405 nm every 10 seconds normally for 30 min on a SpectraMaxPlus (Molecular Devices). Effects on the observed release of ONP was studied with varied enzyme concentration, ONPG concentration and with addition of galactose (Gal), beta-1,4-galactobiose (Gal2) (Megazyme), beta-1,4-galactotriose (Gal3), beta-1,4-galactotetraose (Gal4), glucose (Glu), arabinose (Ara), galacturonic acid (GalA), maltose (Mal) or maltotriose (Mal3).
# In Tables 8-11 below, incubation times required to increase the observed absorbance at 405 nm by given amounts are listed. Cells marked ‘n.r.’ indicate that the increase in absorbance was not reached in the experiment. In general, the initial increase in absorbance at 405 nm was very slow, but after a lag phase the rate of ONP release often increased drastically—often approximately exponentially. The most likely explanation for the observed kinetics is that ONPG reacts with the enzyme to give an enzyme-galactosyl intermediate which hydrolyses very slowly. Instead, the Gal of the intermediate is released by transglycosylation, initially with ONPG or added sugar as acceptor. In cases where the rate of ONP release increases, these transglycosylation products are even better acceptors than the initial ones. […] More likely, Gal inhibits the subsequent transglycosylation, which requires binding of ONPG to the +1 and +2 subsites, e.g., by binding to the +2 subsite. With 50 mg/ml Gal added (results not shown) release of ONP was even slower with only insignificant increase of absorbance at 405 nm in 30 min.
molecule,measurement,setting,value
B1,Slowing of ONP release by addition of Gal,Gal 5 mg/ml,about a factor of two
same,Time (min) to increase A405 by: 0.025,"enzyme 28 μg/ml, no sugar",40.4 min
same,Time (min) to increase A405 by: 0.05,"enzyme 28 μg/ml, no sugar",n.r.
same,Time (min) to increase A405 by: 0.1,"enzyme 28 μg/ml, no sugar",n.r.
same,Time (min) to increase A405 by: 0.2,"enzyme 28 μg/ml, no sugar",n.r.
same,Time (min) to increase A405 by: 0.4,"enzyme 28 μg/ml, no sugar",n.r.
same,Time (min) to increase A405 by: 0.8,"enzyme 28 μg/ml, no sugar",n.r.
same,Time (min) to increase A405 by: 1.6,"enzyme 28 μg/ml, no sugar",n.r.
same,Time (min) to increase A405 by: 3.2,"enzyme 28 μg/ml, no sugar",n.r.
same,Time (min) to increase A405 by: 0.025,"enzyme 55 μg/ml, Gal 5 mg/ml",40.2 min
same,Time (min) to increase A405 by: 0.05,"enzyme 55 μg/ml, Gal 5 mg/ml",n.r.
same,Time (min) to increase A405 by: 0.1,"enzyme 55 μg/ml, Gal 5 mg/ml",n.r.
same,Time (min) to increase A405 by: 0.2,"enzyme 55 μg/ml, Gal 5 mg/ml",n.r.
same,Time (min) to increase A405 by: 0.4,"enzyme 55 μg/ml, Gal 5 mg/ml",n.r.
same,Time (min) to increase A405 by: 0.8,"enzyme 55 μg/ml, Gal 5 mg/ml",n.r.
same,Time (min) to increase A405 by: 1.6,"enzyme 55 μg/ml, Gal 5 mg/ml",n.r.
same,Time (min) to increase A405 by: 3.2,"enzyme 55 μg/ml, Gal 5 mg/ml",n.r.
same,Time (min) to increase A405 by: 0.025,"enzyme 55 μg/ml, no sugar",29.9 min
same,Time (min) to increase A405 by: 0.05,"enzyme 55 μg/ml, no sugar",42.5 min
same,Time (min) to increase A405 by: 0.1,"enzyme 55 μg/ml, no sugar",54.5 min
same,Time (min) to increase A405 by: 0.2,"enzyme 55 μg/ml, no sugar",n.r.
same,Time (min) to increase A405 by: 0.4,"enzyme 55 μg/ml, no sugar",n.r.
same,Time (min) to increase A405 by: 0.8,"enzyme 55 μg/ml, no sugar",n.r.
same,Time (min) to increase A405 by: 1.6,"enzyme 55 μg/ml, no sugar",n.r.
same,Time (min) to increase A405 by: 3.2,"enzyme 55 μg/ml, no sugar",n.r.
same,Time (min) to increase A405 by: 0.025,"enzyme 110 μg/ml, Gal 5 mg/ml",26.9 min
same,Time (min) to increase A405 by: 0.05,"enzyme 110 μg/ml, Gal 5 mg/ml",44.5 min
same,Time (min) to increase A405 by: 0.1,"enzyme 110 μg/ml, Gal 5 mg/ml",n.r.
same,Time (min) to increase A405 by: 0.2,"enzyme 110 μg/ml, Gal 5 mg/ml",n.r.
same,Time (min) to increase A405 by: 0.4,"enzyme 110 μg/ml, Gal 5 mg/ml",n.r.
same,Time (min) to increase A405 by: 0.8,"enzyme 110 μg/ml, Gal 5 mg/ml",n.r.
same,Time (min) to increase A405 by: 1.6,"enzyme 110 μg/ml, Gal 5 mg/ml",n.r.
same,Time (min) to increase A405 by: 3.2,"enzyme 110 μg/ml, Gal 5 mg/ml",n.r.
same,Time (min) to increase A405 by: 0.025,"enzyme 110 μg/ml, no sugar",14.0 min
same,Time (min) to increase A405 by: 0.05,"enzyme 110 μg/ml, no sugar",20.5 min
same,Time (min) to increase A405 by: 0.1,"enzyme 110 μg/ml, no sugar",26.4 min
same,Time (min) to increase A405 by: 0.2,"enzyme 110 μg/ml, no sugar",31.4 min
same,Time (min) to increase A405 by: 0.4,"enzyme 110 μg/ml, no sugar",34.5 min
same,Time (min) to increase A405 by: 0.8,"enzyme 110 μg/ml, no sugar",39.2 min
same,Time (min) to increase A405 by: 1.6,"enzyme 110 μg/ml, no sugar",43.9 min
same,Time (min) to increase A405 by: 3.2,"enzyme 110 μg/ml, no sugar",46.7 min
